Measurements as given in patent publication US7556938B1, “Nucleic acids encoding potassium channel interactors” (Millennium Pharmaceuticals, Inc., priority 1998, dated 2009).

T1: rKv4.3N (Rattus norvegicus, UniProt Q62897)
T1 construct: expressed in transfected cells; host or cells: yeast HF7c (bait), mated with Y187 (fish)
T1 sequence (Q62897 1-180): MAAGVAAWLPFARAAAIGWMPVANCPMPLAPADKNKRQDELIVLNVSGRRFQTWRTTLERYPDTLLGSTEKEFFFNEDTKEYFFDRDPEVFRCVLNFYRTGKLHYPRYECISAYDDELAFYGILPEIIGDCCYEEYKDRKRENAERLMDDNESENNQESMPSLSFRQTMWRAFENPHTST

T2: rKv4.2N (Rattus norvegicus, UniProt Q63881)
T2 construct: the N-terminal domains of Kv4.3, Kv4.2 were expressed as “baits” (Kv4.3N, Kv4.2N, respectively); expressed in transfected cells; host or cells: yeast HF7c (baits), mated with Y187 (fish)
T2 sequence (Q63881 1-184 limits assumed): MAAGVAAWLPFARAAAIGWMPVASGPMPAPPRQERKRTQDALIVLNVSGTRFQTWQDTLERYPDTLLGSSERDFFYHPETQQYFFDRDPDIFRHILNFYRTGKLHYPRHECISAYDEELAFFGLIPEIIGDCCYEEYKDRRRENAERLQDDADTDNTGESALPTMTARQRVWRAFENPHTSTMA

B1: Rat 29x: identical at the amino acid level to rat SOCS-1 (Suppressor Of Cytokine Signaling) (protein)
chain: ARLPAPEHARQQPLLSGPEPGSSARVPVPGVASRRQPRGGKPPSGDGLESGPSPRPLLHARGEAGLHRQSGRVPHTGTAYFADEPTEAQAPGGFCVSPSLLGVRWPACATRTPGSLPLSPPSAQPRTLWPTPPAGPSSRMVARNQVAADNAISPASEPRRRPEPSSSSSSSSPAAPARPRPCPVVPAPAPGDTHFRTFRSHSDYRRITRTSALLDACGFYWGPLSVHGAHERLRAEPVGTFLVRDSRQRNCFFALSVKMASGPTSIRVHFQAGRFHLDGSRETFDCLFELLEHYVAAPRRMLGAPLRQRRVRPLQELCRQRIVAAVGRENLARIPLNPVLRDYLSSFPFQI
B2: Rat 5p: identical to rat Calpactin I light chain or P10 (protein)
chain: MPSQMEHAMETMMLTFHRFAGEKNYLTKEDLRVLMEREFPGFLENQKDPLAVDKIMKDLDQCRDGKVGFQSFLSLVAGLIIACNDYFVVHMKQKK
B3: Rat 7q: identical to RAB2 (rat RAS-related protein) (protein)
chain: MAYAYLFKYIIIGDTGVGKSCLLLQFTDKRFQPVHDLTIGVEFGARMITIDGKQIKLQIWDTAGQESFRSITRSYYRGAAGALLVYDITRRDTFNHLTTWLEDARQHSNSNMVIMLIGNKSDLESRREVKKEEGEAFAREHGLIFMETSAKTASNVEEAFINTAKEIYEKIQEGVFDINNEANGIKIGPQHAATNASHGGNQGGQQAGGGCC
B4: Rat 19r: identical to Rat phosphatidylinositol (PTDINS) transfer protein alpha (protein)
chain: MVLLKEYRVILPVSVDEYQVGQLYSVAEASKNETGGGEGVEVLVNEPYEKDDGEKGQYTHKIYHLQSKVPTFVRMLAPEGALNIHEKAWNAYPYCRTVITNEYMKEDFLIKIETWHKPDLGTQENVHKLEPEAWKHVEAIYIDIADRSQVLSKDYKAEEDPAKFKSIKTGRGPLGPNWKQELVNQKDCPYMCAYKLVTVKFKWWGLQNKVENFIHKQEKRLFTNFHRQLFCWLDKWVDLTMDDIRRMEEETKRQLDEMRQKDPVKGMTADD

These molecules were tested against T1, rKv4.3N (assay: Yeast two-hybrid binding and specificity test, Kv4.3 N-terminal bait). Settings: not given.
Procedure: The first 180 amino acids of rKv4.3 (described in Serdio P. et al. (1996) J. Neurophys 75:2174-2179) were amplified by PCR and cloned in frame into pGBT9 resulting in plasmid pFWA2, (hereinafter “bait”). This bait was transformed into the two-hybrid screening strain HF7c and tested for expression and self-activation. The bait was validated for expression by Western blotting.
(§1) Two-hybrid screens were carried out essentially as described in Bartel, P. et al. (1993) “Using the Two-Hybrid System to Detect Polypeptide-Polypeptide Interactions” in Cellular Interactions in Development: A Practical Approach, Hartley, D. A. ed. Oxford University Press, Oxford, pp. 153-179, with a bait-library pair of rkv4.3 bait-rat mid brain library. A filter disk beta-galactosidase (beta-gal) assay was performed essentially as previously described (Brill et al. (1994) Mol. Biol. Cell. 5:297-312). Clones that were positive for both reporter gene activity (His and beta-galactosidase) were scored and fish, plasmids were isolated from yeast, transformed into E. coli strain KC8, DNA plasmids were purified and the resulting plasmids were sequenced by conventional methods (Sanger F. et al. (1977) PNAS, 74: 5463-67).
(§2) Positive interactor clones were subjected to a binding specificity test where they were exposed to a panel of related and unrelated baits by a mating scheme previously described (Finley R. L. Jr. et al. (1994) PNAS, 91(26):12980-12984). Briefly, positive fish plasmids were transformed into Y187 and the panel of baits were transformed into HF7c. Transformed fish and bait cells were streaked out as stripes on selective medium plates, mated on YPAD plates, and tested for reporter gene activity.
In the case of B1, the “binding to rKv4.3N in yeast two-hybrid assay” value (“binding to rKv4.3N” below) is reported as “binds”. In the case of B2, the “binding to rKv4.3N” value is reported as “binds”. With B3 the “binding to rKv4.3N” value was “binds”. For B4, the “binding to rKv4.3N” value was “binds”.

Same assay, conditions: rKv4.3N versus rKv4.2N
For B1, the “preference between rKv4.3N and rKv4.2N in yeast two-hybrid assay” value (shortened to “preference between rKv4.3N and rKv4.2N”) was “slight preference for rKv4.3N”. With B3 the “preference between rKv4.3N and rKv4.2N” value was “same strength”. In the case of B4, the “preference between rKv4.3N and rKv4.2N” value is reported as “slight preference for rKv4.3N”.

These molecules were tested against T2, rKv4.2N (assay: Yeast two-hybrid binding and specificity test, Kv4.2 N-terminal bait). Settings: not given.
Procedure: as §1, §2
For B1, the “binding to rKv4.2N in yeast two-hybrid assay” value (“binding to rKv4.2N” below) was “binds”. With B2 the “binding to rKv4.2N” value was “binds”. With B3 the “binding to rKv4.2N” value was “binds”. B4 was tested, and the “binding to rKv4.2N” value was “binds”.

Each molecule was assayed against T3, rKv1.1N (Rattus norvegicus, UniProt P10499) (assay: Yeast two-hybrid binding and specificity test, Kv1.1 N-terminal bait). Settings: not given.
T3 construct: expressed in transfected cells; host or cells: yeast HF7c (baits), mated with Y187 (fish)
T3 sequence (P10499 1-164 limits assumed): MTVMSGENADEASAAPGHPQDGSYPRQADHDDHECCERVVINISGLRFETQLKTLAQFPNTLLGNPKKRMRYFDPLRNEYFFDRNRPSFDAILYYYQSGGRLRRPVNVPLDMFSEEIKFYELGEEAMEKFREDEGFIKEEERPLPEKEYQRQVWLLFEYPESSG
Procedure: as §1, §2
For B1, the “binding to rKv1.1N in yeast two-hybrid assay” value (shortened to “binding to rKv1.1N”) was “does not bind”. With B2 the “binding to rKv1.1N” value was “does not bind”. With B3 the “binding to rKv1.1N” value was “does not bind”. B4 was tested, and the “binding to rKv1.1N” value was “does not bind”.
